The target of test [1] is fibrin clots (formed from fibrinogen with bovine thrombin). Briefly: fibrin clot binding; ratio against full length t-PA.
For test [2] the target is unchanged. Description: fibrin clot binding at 0.3 mg/mL fibrinogen; bound = total minus free enzyme in the supernatant.
The target is the same in test [3]. Briefly: fibrin clot binding at 0.2 mg/mL fibrinogen; bound = total minus free enzyme in the supernatant.
Test [4] has as its target full length t-PA (tissue-type plasminogen activator), commercially available t-PA, Actylase (human) (UniProt P00750). Description: cell-based or functional assay.
Test [5] deals with chimeric truncated and mutant variant of t-PA (truncated-mutant t-PA, KHRR 128-131 substituted with AAAA) (human) (UniProt P00750). Description: cell-based or functional assay.

For the substance “chimeric truncated t-PA (GHRP-SYQ-K2S) (from UniProt P00750 211-562) (enzyme)”, in test [1], the fibrin affinity relative to full length t-PA (set to 100%) worked out at 86%. The fibrin affinity (percent of enzyme bound to fibrin clot) amounted to 46% in test [2] and 38% in test [3].
Take “full length t-PA (tissue-type plasminogen activator), commercially available t-PA, Actylase (from UniProt P00750 36-562) (enzyme)”: the fibrin affinity (percent of enzyme bound to fibrin clot) in test [2] is 53%; in test [3] it was 44%.
Turning to “human rPAI-1 (recombinant plasminogen activator inhibitor-1) (from UniProt P05121 24-402)”, the results for the residual activity after inhibition by rPAI-1 in test [4] and in test [5] were 65% and 85%, respectively.
